Data taken from article PMC4159138, “Fission Yeast Pxd1 Promotes Proper DNA Repair by Activating Rad16^XPF and Inhibiting Dna2” (PLoS Biology, 2014).
Each block holds one binder with its values, some of them ahead of it.

Columns and labels:
RPA = target: T1, RPA (UniProt Q92372;Q92373;Q92374 1-609;1-279;1-104); experiment: EMSA; 1 mM EDTA; 50 ng RPA; 50 mM Tris-HCl pH 7.5, 1 mM EDTA, 1 mM DTT, 0.1 mg/ml BSA, 50 mM NaCl, 5% glycerol, 15 fmol DNA in 10 µl, room temperature 30 min; 5% PAGE in 1x TBE; details: protein: recombinant; tags: 6xHis-GST on Rpa1 in plasmid pDB2129; copies: 1;1;1; label: 5' 32P on oligo461; 18 bp duplex with 5' overhang 31 nt on oligo461
T1 sequence 1: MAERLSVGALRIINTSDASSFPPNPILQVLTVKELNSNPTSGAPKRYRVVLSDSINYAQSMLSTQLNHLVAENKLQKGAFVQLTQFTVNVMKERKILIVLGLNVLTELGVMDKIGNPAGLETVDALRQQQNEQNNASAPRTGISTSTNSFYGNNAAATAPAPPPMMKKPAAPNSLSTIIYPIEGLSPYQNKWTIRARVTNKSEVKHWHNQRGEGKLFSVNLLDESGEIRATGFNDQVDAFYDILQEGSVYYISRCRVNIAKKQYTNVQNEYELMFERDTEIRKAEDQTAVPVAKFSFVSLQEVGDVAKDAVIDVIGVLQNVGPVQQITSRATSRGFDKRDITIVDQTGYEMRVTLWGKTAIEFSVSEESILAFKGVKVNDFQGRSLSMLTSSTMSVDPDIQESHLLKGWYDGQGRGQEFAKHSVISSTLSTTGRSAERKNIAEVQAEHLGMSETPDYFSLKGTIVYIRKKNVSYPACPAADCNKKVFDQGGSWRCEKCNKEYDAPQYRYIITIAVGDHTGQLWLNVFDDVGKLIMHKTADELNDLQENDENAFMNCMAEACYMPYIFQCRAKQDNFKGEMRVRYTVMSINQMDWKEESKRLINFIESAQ
T1 sequence 2: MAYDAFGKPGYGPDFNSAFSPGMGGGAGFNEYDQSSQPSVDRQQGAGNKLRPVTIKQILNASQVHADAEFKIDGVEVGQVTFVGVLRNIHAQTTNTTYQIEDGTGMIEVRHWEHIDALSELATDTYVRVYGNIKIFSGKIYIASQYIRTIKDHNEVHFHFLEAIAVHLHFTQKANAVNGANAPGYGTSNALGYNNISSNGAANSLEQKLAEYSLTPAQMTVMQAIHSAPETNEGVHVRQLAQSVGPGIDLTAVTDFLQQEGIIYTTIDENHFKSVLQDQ
T1 sequence 3: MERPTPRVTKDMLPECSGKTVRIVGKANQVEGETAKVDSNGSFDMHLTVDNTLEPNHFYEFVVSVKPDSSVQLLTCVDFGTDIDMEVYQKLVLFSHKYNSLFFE

[1] = target: T2, Dna2 co-overexpressed with Cdc24-YFH and purified from fission yeast (S. pombe, UniProt Q9URU2 1-1397); experiment: cross-linking; CXMS: Dna2-Cdc24-Pxd1(227–351) complex formed on anti-FLAG beads and eluted with 3× FLAG peptide; about 12 µg cross-linked by BS3 or DSS (0.5 mM, 1 h, room temperature), trypsin, LC-MS/MS, pLink; details: both partners purified
T2 construct: Dna2, S. pombe; The Dna2 chain of m29, written alone for the cross-links with Cdc24; source: fission yeast pxd1Δ cells, co-overexpressed with Cdc24-YFH, purified (anti-FLAG beads)
T2 sequence (looked up): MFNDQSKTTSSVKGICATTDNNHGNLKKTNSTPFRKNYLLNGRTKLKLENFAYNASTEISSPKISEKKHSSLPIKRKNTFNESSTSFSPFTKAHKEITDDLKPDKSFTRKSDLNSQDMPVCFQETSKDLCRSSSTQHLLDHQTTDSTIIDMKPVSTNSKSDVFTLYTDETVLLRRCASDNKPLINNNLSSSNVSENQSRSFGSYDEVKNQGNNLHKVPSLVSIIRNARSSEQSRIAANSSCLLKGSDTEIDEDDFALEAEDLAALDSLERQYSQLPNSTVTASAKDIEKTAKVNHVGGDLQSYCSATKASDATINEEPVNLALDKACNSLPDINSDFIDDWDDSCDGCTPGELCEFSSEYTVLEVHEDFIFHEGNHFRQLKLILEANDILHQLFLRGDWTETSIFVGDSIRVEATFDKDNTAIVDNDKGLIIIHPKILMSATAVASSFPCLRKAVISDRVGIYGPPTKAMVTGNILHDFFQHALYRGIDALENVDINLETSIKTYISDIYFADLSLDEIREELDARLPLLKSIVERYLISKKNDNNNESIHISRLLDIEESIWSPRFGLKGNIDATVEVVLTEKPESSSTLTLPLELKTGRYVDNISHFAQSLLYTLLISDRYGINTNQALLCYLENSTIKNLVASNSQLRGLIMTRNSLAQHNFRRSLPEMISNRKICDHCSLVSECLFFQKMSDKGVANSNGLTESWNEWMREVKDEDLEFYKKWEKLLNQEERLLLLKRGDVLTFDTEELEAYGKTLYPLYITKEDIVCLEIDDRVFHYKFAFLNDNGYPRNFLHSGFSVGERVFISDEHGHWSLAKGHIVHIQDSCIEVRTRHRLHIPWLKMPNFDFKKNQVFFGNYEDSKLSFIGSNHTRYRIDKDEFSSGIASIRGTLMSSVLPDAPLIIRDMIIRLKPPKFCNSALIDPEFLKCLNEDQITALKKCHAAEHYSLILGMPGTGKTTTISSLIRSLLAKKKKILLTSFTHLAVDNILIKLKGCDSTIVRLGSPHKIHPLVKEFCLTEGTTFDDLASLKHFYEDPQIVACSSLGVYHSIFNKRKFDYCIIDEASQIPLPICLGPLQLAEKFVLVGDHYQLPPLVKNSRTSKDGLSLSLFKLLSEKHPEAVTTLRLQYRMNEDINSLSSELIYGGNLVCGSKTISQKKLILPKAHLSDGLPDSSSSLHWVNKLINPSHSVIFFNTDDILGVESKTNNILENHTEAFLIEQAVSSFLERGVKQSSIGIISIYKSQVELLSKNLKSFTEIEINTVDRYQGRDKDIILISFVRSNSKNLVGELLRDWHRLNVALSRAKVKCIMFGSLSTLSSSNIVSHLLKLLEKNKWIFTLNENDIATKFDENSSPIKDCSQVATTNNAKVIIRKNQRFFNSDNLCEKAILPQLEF

B1: 5' overhang DNA (oligo461/oligo463) (dsDNA)
DNA 1: CACGCTACCGAATTCTGACTTGCTAGGACATCTTTGCCCACGTTGACCC
DNA 2: GGGTCAACGTGGGCAAAG
binding result (RPA): binds

binding result [1]: binds
B2: Cdc24-YFH co-overexpressed with Dna2 and purified from fission yeast (natural protein, S. pombe, UniProt O75004 1-501, looked up)
chain: MDFPGLIKKIKEDLENRLVEKSKQPAFTDYWLINKTISLLKEYPSGFSYPILINEIELACSERNKLDNVFSSLEWLTKSDAVIYLEDQFHFHCYDYYYTPIPSLKLKDSEENTCEMILHSSFYLLFHEPFNILKGSTLRFSQSRIHQKWYLRKQIRFLPTTSFVPVLQYAASKSFVKSMVESTEHEFFQIRDITISKSDQGVKRITVELGRIISLDKKGAFLIDNNTNFIHFSGTYHDFPKLLDKQQYLLIPFWSTVWEGSTNWQDGMIGILVILSENDFEEKKCDSWQVGRLAAVNSNFLVLDNNGQRVKILYSNSQKHYFKDTYIGDLLCISPINHSSDNLSDYSCVSDTTTEILSNLENPLSSNFLRNDLCKFSNLFSGVSGHLKIQPLTLVITGFVANLTRQSDLNTSLVLPEVNPLTAKMEVIDCLRNSFWAALRPNCVSYFASMISGFKELFQKEMEFPIYLDLKSYKLGFHWCDIYVDSEHNCHIQKINSLPCE
notes: Cdc24, S. pombe; The Cdc24 chain of m29, written alone for the cross-links; source: fission yeast pxd1Δ cells, co-overexpressed with Dna2, purified (anti-FLAG beads)
